What was measured:
purified protein [1] = substrate: NC(=O)C1=CN([C@@H]2O[C@H](COP(=O)(O)OP(=O)(O)OC[C@H]3O[C@@H](n4cnc5c(N)ncnc54)[C@H](O)[C@@H]3O)[C@@H](O)[C@H]2O)C=CC1; experiment: purified protein; type: biochemical, Thermochaetoides thermophila; settings: 0.5 M D-xylose, 50 mM bis-tris pH 6.5, 30 °C, varied: cofactor
purified protein [2] = substrate: NC(=O)C1=CN([C@@H]2O[C@H](COP(=O)(O)OP(=O)(O)OC[C@H]3O[C@@H](n4cnc5c(N)ncnc54)[C@H](OP(=O)(O)O)[C@@H]3O)[C@@H](O)[C@H]2O)C=CC1; experiment: purified protein; type: biochemical, Thermochaetoides thermophila; settings: 0.5 M D-xylose, 50 mM bis-tris pH 6.5, 30 °C, varied: cofactor

B1: CtXR; xylose reductase from Chaetomium thermophilum (Thermochaetoides thermophila DSM 1495) (protein)
chain: MAPQIPNIKLSSGYDMPQVGFGLWKVDRSICADVVYNAIKIGYRLFDGACDYGNEVEAGQGIARAIKEGIVKREELFIVSKLWNTFHDGDKVEPIVRKQLADWGIDYFDLYLVHFPVALEYVDPSVRYPPGWFYDGEKEIRPSKATIQETWTAMESLVEKGLARSIGVSNFQAQLLYDLLRYAKIRPATLQIEHHPFLVQQELLNLAKAEGIAVTAYSSFGPQSFLEFNMKHAVQLTPLFEDETIKKIAAKYNRPASQVLLRWATQRGLAIIPKSTRPEIMKSNLESIEFDLSEEDIATISAFDRGLRFNQPTNYFPTEHLWIFG
notes: full-length ORF, codon optimized, pET28a, C-terminal His6 tag kept, E. coli BL21(DE3), IMAC and SEC; theoretical mass 39,244 Da; oligomer not determined (XRs commonly dimers)
For B1, which Km (purified protein [1]) is on record?
The Km was 119 ± 6 µM.

And the kcat (purified protein [1])?
The kcat was 3.2 ± 0.1 s⁻¹.

What about the kcat/Km (purified protein [1]) of the same protein?
Its kcat/Km is 26700 ± 1670 M⁻¹ s⁻¹.

And the Km (purified protein [2])?
Its Km is 135 ± 44 µM.

And the kcat (purified protein [2])?
Its kcat is 11.4 ± 1.1 s⁻¹.

What about the kcat/Km (purified protein [2]) of the same protein?
The kcat/Km was 85000 ± 28300 M⁻¹ s⁻¹.
